Results as given in patent US20190010248A1 (Pieris, published 2019).

Target: T1, recombinant CD137-Fc fusion (#838-4B-100, R&D Systems) (human, UniProt Q07011 24-186)
T1 construct: also called Fc-fusion of human CD137; human CD137-Fc; not shown: Fc part of the bought fusion
Experiment: ELISA, CD137-Fc coated, detection with anti-hNGAL antibody-HRP

- EC50: 0.49 nM
B1: lipocalin mutein of SEQ ID NO: 2 (designed binder)
chain: QDSTSDLIPAPPLSKVPLQQNFQDNQFHGKWYVVGQAGNIRLREDKDPIKMMATIYELKEDKSYDVTMVKFDDKKCMYDIWTFVPGSQPGEFTLGKIKSFPGHTSSLVRVVSTNYNQHAMVFFKFVFQNREEFYITLYGRTKELTSELKENFIRFSKSLGLPENHIVFPVPIDQCIDG
notes: also called positive control lipocalin mutein; CD137-specific lipocalin mutein in monomeric form
